Experiments:
Experiment in all cases: SPR (Biacore); KD of SG1 divided by KD of the variant for this FcgR;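 also: relative to parent M103205H795-SG1 carrying the SG1 human heavy chain constant region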
[1] = target: T1, cynomolgus monkey FcγRIIa1 extracellular domain with C-terminal His-tag (cynomolgus monkey)
T1 construct: Expressed in FreeStyle 293 cells and purified; also called cyno FcγRIIa1; cynoFcgRIIa1; not shown: C-terminal His-tag
T1 chain: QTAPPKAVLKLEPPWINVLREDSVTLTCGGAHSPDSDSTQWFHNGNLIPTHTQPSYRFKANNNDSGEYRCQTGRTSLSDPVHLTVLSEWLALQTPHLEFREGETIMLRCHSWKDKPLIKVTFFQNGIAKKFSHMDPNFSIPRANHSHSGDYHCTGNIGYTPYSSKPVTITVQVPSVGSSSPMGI

[2] = target: T2, cynomolgus monkey FcγRIIa2 extracellular domain with C-terminal His-tag (cynomolgus monkey)
T2 construct: Expressed in FreeStyle 293 cells and purified; also called cyno FcγRIIa2; cynoFcgRIIa2; not shown: C-terminal His-tag
T2 chain: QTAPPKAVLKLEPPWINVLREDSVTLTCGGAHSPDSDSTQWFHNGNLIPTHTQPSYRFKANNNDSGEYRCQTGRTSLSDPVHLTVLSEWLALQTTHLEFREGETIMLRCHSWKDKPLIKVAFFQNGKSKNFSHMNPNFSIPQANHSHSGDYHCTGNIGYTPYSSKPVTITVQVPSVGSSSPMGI

[3] = target: T3, cynomolgus monkey FcγRIIb extracellular domain with C-terminal His-tag (cynomolgus monkey)
T3 construct: Expressed in FreeStyle 293 cells and purified; also called cyno FcγRIIb; cynoFcγRIIb; not shown: C-terminal His-tag
T3 chain: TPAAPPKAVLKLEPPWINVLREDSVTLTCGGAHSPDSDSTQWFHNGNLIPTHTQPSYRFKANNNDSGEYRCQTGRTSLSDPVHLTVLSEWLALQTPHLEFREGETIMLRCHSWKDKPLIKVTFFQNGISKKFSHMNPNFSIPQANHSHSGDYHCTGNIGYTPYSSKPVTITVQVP

[4] = target: T4, cynomolgus monkey FcγRIIIaS extracellular domain with C-terminal His-tag (cynomolgus monkey, UniProt Q8SPW2 21-206 at identity 1.00))
T4 construct: Expressed in FreeStyle 293 cells and purified; also called cyno FcγRIIIaS; cynoFcγRIIIaS; not shown: C-terminal His-tag
T4 chain: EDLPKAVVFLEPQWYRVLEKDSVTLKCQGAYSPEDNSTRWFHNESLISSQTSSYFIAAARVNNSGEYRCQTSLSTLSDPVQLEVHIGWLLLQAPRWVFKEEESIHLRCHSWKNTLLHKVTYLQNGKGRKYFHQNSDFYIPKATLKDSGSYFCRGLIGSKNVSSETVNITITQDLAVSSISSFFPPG

[5] = target: T5, human FcγRIIaH extracellular domain with C-terminal His-tag (human, UniProt P12318 34-217)
T5 construct: Expressed in FreeStyle 293 cells and purified; also called human FcγRIIa (type H); FcgRIIaH; not shown: C-terminal His-tag
T5 sequence: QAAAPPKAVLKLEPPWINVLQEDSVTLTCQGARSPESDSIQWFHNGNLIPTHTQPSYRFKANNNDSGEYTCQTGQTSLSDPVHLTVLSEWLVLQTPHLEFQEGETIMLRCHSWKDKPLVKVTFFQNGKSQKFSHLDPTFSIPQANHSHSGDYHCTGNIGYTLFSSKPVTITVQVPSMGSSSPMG

[6] = target: T6, human FcγRIIaR extracellular domain with C-terminal His-tag (human, UniProt P12318 34-217)
T6 construct: Expressed in FreeStyle 293 cells and purified; also called human FcγRIIa (type R); FcgRIIaR; not shown: C-terminal His-tag
T6 chain: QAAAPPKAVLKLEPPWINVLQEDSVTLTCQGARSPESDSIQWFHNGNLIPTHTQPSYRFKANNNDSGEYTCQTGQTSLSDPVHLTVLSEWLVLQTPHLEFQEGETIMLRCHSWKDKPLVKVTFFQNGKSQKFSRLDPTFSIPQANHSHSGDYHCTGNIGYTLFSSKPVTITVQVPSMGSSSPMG

[7] = target: T7, human FcγRIIb extracellular domain with C-terminal His-tag (human, UniProt P31994 43-217)
T7 construct: Expressed in FreeStyle 293 cells and purified; also called humanFcgRIIb; not shown: C-terminal His-tag
T7 sequence: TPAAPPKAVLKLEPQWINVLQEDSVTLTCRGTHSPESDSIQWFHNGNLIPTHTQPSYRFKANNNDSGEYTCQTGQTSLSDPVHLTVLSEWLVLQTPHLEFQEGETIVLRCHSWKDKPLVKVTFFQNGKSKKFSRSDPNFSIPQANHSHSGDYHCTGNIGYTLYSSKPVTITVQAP

[8] = target: T8, human FcγRIIIaV extracellular domain with C-terminal His-tag (human, UniProt P08637 17-208)
T8 construct: Expressed in FreeStyle 293 cells and purified; also called FcgRIIIaV; not shown: C-terminal His-tag
T8 sequence (P08637 17-208 F176V): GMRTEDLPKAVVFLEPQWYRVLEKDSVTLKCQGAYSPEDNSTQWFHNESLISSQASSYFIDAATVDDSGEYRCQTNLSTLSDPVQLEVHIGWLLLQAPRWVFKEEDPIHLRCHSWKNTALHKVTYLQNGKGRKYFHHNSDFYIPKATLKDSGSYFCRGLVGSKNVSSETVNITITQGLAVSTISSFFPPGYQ

| Binder | KD fold (SG1 = 1) [1] | KD fold (SG1 = 1) [2] | KD fold (SG1 = 1) [3] | KD fold (SG1 = 1) [4] | KD fold (SG1 = 1) [5] | KD fold (SG1 = 1) [6] | KD fold (SG1 = 1) [7] | KD fold (SG1 = 1) [8] |
| --- | --- | --- | --- | --- | --- | --- | --- | --- |
| M103205H795-MY176 / M103202L889-SK1 (antibody, human IgG1, kappa, Position 396 variant derived from MY052, expressed with M103202L889-SK1 as light chain) heavy: QVTLKESGPVLVKPTETLTLTCTVSGIDLSHDDISWVRQAPGKGLEWVGIISYAGSTYYASWAKGRLTISKDTSKNQVVLTMTNMDPVDTATYYCARGVPAYSHGGDLWGQGTLVTVSSASTKGPSVFPLAPSSKSTSGGTAALGCLVKDYFPEPVTVSWNSGALTSGVHTFPAVLQSSGLYSLSSVVTVPSSSLGTQTYICNVNHKPSNTKVDKKVEPKSCDKTHTCPPCPAPELLNGPSVFLFPPKPKDTLMISRTPEVTCVVVDVSEEDPEVKFNWYVDGVEVHNAKTKPREEQYNSTYRVVSVLTVLHQDWLNGKEYKCKVSNKALPAPIEKTISKAKGQPREPQVYTLPPSREEMTKNQVSLTCLVKGFYPSDIAVEWESNGQPENNYKTTPLVLDSDGSFFLYSKLTVDKSRWQQGNVFSCSVMHEALHNHYTQKSLSLSP light: DIVMTQSPATLSLSPGERATLSCTSSQSVYHANWLSWFQQKPGQPPKLLIYWASTLAYGVPSRFSGSGSGTDFTLTISSLQPEDAATYYCAGGYGGGRYAFGQGTKVEIKRTVAAPSVFIFPPSDEQLKSGTASVVCLLNNFYPREAKVQWKVDNALQSGNSQESVTEQDSKDSTYSLSSTLTLSKADYEKHKVYACEVTHQGLSSPVTKSFNRGEC | 2.5 fold | 3.6 fold | 3 fold | 0.16 fold | 1 fold | 0.8 fold | 6.6 fold | 0.13 fold |
| M103205H795-MY177 / M103202L889-SK1 (antibody, human IgG1, kappa, Position 396 variant derived from MY052, expressed with M103202L889-SK1 as light chain) heavy: QVTLKESGPVLVKPTETLTLTCTVSGIDLSHDDISWVRQAPGKGLEWVGIISYAGSTYYASWAKGRLTISKDTSKNQVVLTMTNMDPVDTATYYCARGVPAYSHGGDLWGQGTLVTVSSASTKGPSVFPLAPSSKSTSGGTAALGCLVKDYFPEPVTVSWNSGALTSGVHTFPAVLQSSGLYSLSSVVTVPSSSLGTQTYICNVNHKPSNTKVDKKVEPKSCDKTHTCPPCPAPELLNGPSVFLFPPKPKDTLMISRTPEVTCVVVDVSEEDPEVKFNWYVDGVEVHNAKTKPREEQYNSTYRVVSVLTVLHQDWLNGKEYKCKVSNKALPAPIEKTISKAKGQPREPQVYTLPPSREEMTKNQVSLTCLVKGFYPSDIAVEWESNGQPENNYKTTPNVLDSDGSFFLYSKLTVDKSRWQQGNVFSCSVMHEALHNHYTQKSLSLSP light: DIVMTQSPATLSLSPGERATLSCTSSQSVYHANWLSWFQQKPGQPPKLLIYWASTLAYGVPSRFSGSGSGTDFTLTISSLQPEDAATYYCAGGYGGGRYAFGQGTKVEIKRTVAAPSVFIFPPSDEQLKSGTASVVCLLNNFYPREAKVQWKVDNALQSGNSQESVTEQDSKDSTYSLSSTLTLSKADYEKHKVYACEVTHQGLSSPVTKSFNRGEC | 1.7 fold | 2.8 fold | 2.2 fold | 0.12 fold | 0.7 fold | 0.6 fold | 4.2 fold | 0.13 fold |
| M103205H795-MY178 / M103202L889-SK1 (antibody, human IgG1, kappa, Position 396 variant derived from MY052, expressed with M103202L889-SK1 as light chain) heavy: QVTLKESGPVLVKPTETLTLTCTVSGIDLSHDDISWVRQAPGKGLEWVGIISYAGSTYYASWAKGRLTISKDTSKNQVVLTMTNMDPVDTATYYCARGVPAYSHGGDLWGQGTLVTVSSASTKGPSVFPLAPSSKSTSGGTAALGCLVKDYFPEPVTVSWNSGALTSGVHTFPAVLQSSGLYSLSSVVTVPSSSLGTQTYICNVNHKPSNTKVDKKVEPKSCDKTHTCPPCPAPELLNGPSVFLFPPKPKDTLMISRTPEVTCVVVDVSEEDPEVKFNWYVDGVEVHNAKTKPREEQYNSTYRVVSVLTVLHQDWLNGKEYKCKVSNKALPAPIEKTISKAKGQPREPQVYTLPPSREEMTKNQVSLTCLVKGFYPSDIAVEWESNGQPENNYKTTPQVLDSDGSFFLYSKLTVDKSRWQQGNVFSCSVMHEALHNHYTQKSLSLSP light: DIVMTQSPATLSLSPGERATLSCTSSQSVYHANWLSWFQQKPGQPPKLLIYWASTLAYGVPSRFSGSGSGTDFTLTISSLQPEDAATYYCAGGYGGGRYAFGQGTKVEIKRTVAAPSVFIFPPSDEQLKSGTASVVCLLNNFYPREAKVQWKVDNALQSGNSQESVTEQDSKDSTYSLSSTLTLSKADYEKHKVYACEVTHQGLSSPVTKSFNRGEC | 1.6 fold | 2.4 fold | 1.9 fold | 0.12 fold | 0.5 fold | 0.5 fold | 3.5 fold | 0.18 fold |
